Measured values as given in paper PMC10936676, “ATG9B is a tissue-specific homotrimeric lipid scramblase that can compensate for ATG9A” (Autophagy, 2023).

Target: the molecule itself
Assay: cryo-EM structure; single-particle cryo-EM of purified ATG9B in LMNG-CHS micelles; 20 mM Tris-HCl, 200 mM NaCl, pH 8.5; reconstructions with C3 and without symmetry

B1: 3×FLAG-6×His-TEV-ATG9B (full-length human ATG9B), purified from Expi293 cells (natural protein, UniProt Q674R7-1 1-924, looked up)
chain: MVSRMGWGGRRRRLGRWGDLGPGSVPLLPMPLPPPPPPSCRGPGGGRISIFSLSPAPHTRSSPSSFSPPTAGPPCSVLQGTGASQSCHSALPIPATPPTQAQPAMTPASASPSWGSHSTPPLAPATPTPSQQCPQDSPGLRVGPLIPEQDYERLEDCDPEGSQDSPIHGEEQQPLLHVPEGLRGSWHHIQNLDSFFTKIYSYHQRNGFACILLEDVFQLGQFIFIVTFTTFLLRCVDYNVLFANQPSNHTRPGPFHSKVTLSDAILPSAQCAERIRSSPLLVLLLVLAAGFWLVQLLRSVCNLFSYWDIQVFYREALHIPPEELSSVPWAEVQSRLLALQRSGGLCVQPRPLTELDIHHRILRYTNYQVALANKGLLPARCPLPWGGSAAFLSRGLALNVDLLLFRGPFSLFRGGWELPHAYKRSDQRGALAARWGRTVLLLAALNLALSPLVLAWQVLHVFYSHVELLRREPGALGARGWSRLARLQLRHFNELPHELRARLARAYRPAAAFLRTAAPPAPLRTLLARQLVFFAGALFAALLVLTVYDEDVLAVEHVLTAMTALGVTATVARSFIPEEQCQGRAPQLLLQTALAHMHYLPEEPGPGGRDRAYRQMAQLLQYRAVSLLEELLSPLLTPLFLLFWFRPRALEIIDFFHHFTVDVAGVGDICSFALMDVKRHGHPQWLSAGQTEASLSQRAEDGKTELSLMRFSLAHPLWRPPGHSSKFLGHLWGRVQQDAAAWGATSARGPSTPGVLSNCTSPLPEAFLANLFVHPLLPPRDLSPTAPCPAAATASLLASISRIAQDPSSVSPGGTGGQKLAQLPELASAEMSLHVIYLHQLHQQQQQQEPWGEAAASILSRPCSSPSQPPSPDEEKPSWSSDGSSPASSPRQQWGTQKARNLFPGGFQVTTDTQKEPDRASCTD
notes: ATG9B, human, canonical isoform 1 (Q674R7-1), full length; residues 191-674 visible in the cryo-EM map; A TEV site lies between the 6×His tag and ATG9B; no cleavage is described; Eluted from the anti-FLAG resin with 3×FLAG peptide; In LMNG-CHS micelles; also called ATG9B homotrimer; pcDNA3.1-3×FLAG-6×His-TEV-ATG9B; source: Expi293, transiently transfected, extracted into detergent micelles, …
stoichiometry N: 3
